Assay results from patent US20220403029A1 (KYMAB, published 2022).
Like-named read-outs stand apart in the source and are kept apart here. One block for each binder: values may come before it.

What was measured:
[1] = target: T1, human ICOS expressed on cells (human, UniProt Q9Y6W8 21-199); assay: flow cytometry on CHO-S cells expressing human ICOS
T1 construct: also called hICOS CHO; Human ICOS CHO
T1 sequence: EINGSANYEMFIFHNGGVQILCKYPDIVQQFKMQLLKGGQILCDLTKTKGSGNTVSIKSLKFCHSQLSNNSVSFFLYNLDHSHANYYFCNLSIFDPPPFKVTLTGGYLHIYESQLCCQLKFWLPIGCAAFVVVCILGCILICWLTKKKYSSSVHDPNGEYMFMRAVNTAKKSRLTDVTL

[2] = target: T2, mouse ICOS expressed on CHO-S cells (mouse, UniProt Q9WVS0 21-141); assay: flow cytometry on CHO-S cells expressing mouse ICOS
T2 construct: full length mouse ICOS (NCBI NP_059508.2) was transfected; also called mICOS CHO; Mouse ICOS CHO
T2 sequence: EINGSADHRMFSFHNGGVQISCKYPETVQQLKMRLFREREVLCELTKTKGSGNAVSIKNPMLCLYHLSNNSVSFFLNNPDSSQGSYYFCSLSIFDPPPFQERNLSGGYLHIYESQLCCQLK

[3] = target: T1, human ICOS expressed on cells; assay: FACS screen on CHO-S cells expressing human ICOS
Description: (§1) BCT supernatants and HEK293 expressed antibodies from Example 5 were tested for ability to bind to CHO-S cells expressing human or mouse ICOS.
(§2) CHO-S cells expressing human or mouse ICOS (see Example 2), were diluted in FACS buffer (PBS 1% BSA 0.1% sodium azide) and were distributed to a 96-well, V-bottom plate (Greiner) at a density of 1×10⁵ cells per well. Cells were washed with 150 μL PBS and centrifuged at 300 g for 3 minutes. For supernatant screening, supernatant was aspirated and 150 μL PBS added. This wash step was repeated. 30 μL BCT undiluted supernatant or 50 μL of reference antibody or control antibody diluted to 5 μg/ml in BCT media was added to the washed cells. Cells were incubated at 4° C. for 60 minutes. 150 μL FACS buffer was added and cells washed as described above. To detect antibody binding, 50 μL of goat anti-mouse APC (Jackson ImmunoResearch) diluted to 2 μg/ml in FACS buffer was added to cells. Cells were incubated 4° C. for 60 minutes. Cells were washed twice with 150 μL FACS buffer, centrifuging at 300 g for 3 minutes after each wash step and aspirating supernatant. Cells were fixed by addition of 25 μL 4% paraformaldehyde for 20 minutes at room temperature. Cells were washed once as above and resuspended in FACS buffer for analysis. APC signal intensity (geometric mean) was measured by flow cytometry using a BD FACS Array instrument. Data were plotted as geometric mean values without further calculation.

[4] = target: T2, mouse ICOS expressed on CHO-S cells; assay: FACS screen on CHO-S cells expressing mouse ICOS
Description: as §1, §2

[5] = target: T1, human ICOS expressed on cells; assay: cell-based or functional assay
[6] = target: T1, human ICOS expressed on cells; assay: cell-based or functional assay; remark: listed apart in the source
[7] = target: T1, human ICOS expressed on cells; assay: cell-based or functional assay; remark: listed apart in the source
[8] = target: T3, mouse ICOS-mFc (Chimerigen) (mouse, UniProt Q9WVS0 21-144); assay: HTRF neutralisation of mouse B7-H2 binding to mouse ICOS-mFc, hamster IgG in the IgG1 series; SD 0 (n = 3)
T3 construct: bought; also called mouse ICOS receptor; not shown: mouse Fc of a bought reagent
T3 sequence (looked up): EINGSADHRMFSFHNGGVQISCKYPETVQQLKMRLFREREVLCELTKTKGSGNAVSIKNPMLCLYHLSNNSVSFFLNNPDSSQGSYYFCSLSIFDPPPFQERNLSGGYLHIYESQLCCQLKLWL

[9] = target: T4, human ICOS-mFc (Chimerigen) (human, UniProt Q9Y6W8 21-141); assay: HTRF neutralisation of human B7-H2 binding to human ICOS-mFc, hamster IgG in the IgG1 series; SD 0.3 (n = 4)
T4 construct: bought; also called human ICOS receptor; not shown: mouse Fc of a bought reagent
T4 sequence (looked up): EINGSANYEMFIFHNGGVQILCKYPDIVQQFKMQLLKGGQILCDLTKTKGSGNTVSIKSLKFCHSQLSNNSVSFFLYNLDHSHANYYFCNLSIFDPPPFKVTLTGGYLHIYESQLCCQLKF

[10] = target: T4, human ICOS-mFc (Chimerigen); assay: HTRF neutralisation of human B7-H2 binding to human ICOS-mFc, hamster IgG in the IgG4.PE series; SD 3.8 (n = 4)
[11] = target: T3, mouse ICOS-mFc (Chimerigen); assay: HTRF neutralisation of mouse B7-H2 binding to mouse ICOS-mFc, hamster IgG in the IgG4.PE series; SD 0.1 (n = 3)
[12] = target: T3, mouse ICOS-mFc (Chimerigen); assay: HTRF neutralisation of mouse B7-H2 binding to mouse ICOS-mFc, IgG1 series; same result as the 6th table, row 13, column 3 with more digits

B1: CL-61091 (IgG1 format) (antibody, V domains shown)
VH: QVQLMQSGTEVKKPGASVKVSCKTSGYTFTTYGITWVRQAPGQGLEWMGWISAYSGDTDYAQKFQGRVTVTTDTSTNTAYMELRSLKSDDTAVYYCARSSGWPHHYGMDVWGQGTTVTVSS
VL: DIVMTQSPLSLPVTPGEPASISCRSSQSLLHSNGFNYFDWYLQKPGQSPQLLIFLVSNRASGVPDRFSGSGSGTDFTLKISRVEAEDVGIYYCMQALQTPLTFGGGTKVEIK
notes: synthesised and expressed in human IgG1 format in HEK cells; tested as supernatant
- fold above average geomean of negative control [1]: > 10 fold
- fold above average geomean of negative control [2]: > 10 fold

B3: STIM003 as screened from BCT (mouse IgG1 constant region) (antibody, V domains shown)
VH: EVQLVESGGGVVRPGGSLRLSCVASGVTFDDYGMSWVRQAPGKGLEWVSGINWNGGDTDYSDSVKGRFTISRDNAKNSLYLQMNSLRAEDTALYYCARDFYGSGSYYHVPFDYWGQGILVTVSS
VL: EIVLTQSPGTLSLSPGERATLSCRASQSVSRSYLAWYQQKRGQAPRLLIYGASSRATGIPDRFSGDGSGTDFTLSISRLEPEDFAVYYCHQYDMSPFTFGPGTKVDIK
notes: as m28
- fold above average geomean of negative control (HTK888) [3]: > 4 fold
- fold above average geomean of negative control (HTK888) [4]: > 4 fold

B4: STIM004 as screened from BCT (mouse IgG1 constant region) (antibody, V domains shown)
VH: EVQLVESGGGVVRPGGSLRLSCAASGLTFDDYGMSWVRQVPGKGLEWVSGINWNGDNTDYADSVKGRFTISRDNAKNSLYLQMNSLRAEDTALYYCARDYYGSGSYYNVPFDYWGQGTLVTVSS
VL: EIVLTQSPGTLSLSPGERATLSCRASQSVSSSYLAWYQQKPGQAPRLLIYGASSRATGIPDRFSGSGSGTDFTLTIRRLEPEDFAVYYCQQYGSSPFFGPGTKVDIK
notes: as m28
- fold above average geomean of negative control (HTK888) [3]: > 4 fold
- fold above average geomean of negative control (HTK888) [4]: > 4 fold

B6: STIM005 as screened from BCT (mouse IgG1 constant region) (antibody, V domains shown)
VH: QVQLVQSGAEVKKPGASVKVSCKASGYTFNSYGIIWVRQAPGQGLEWMGWISVHNGNTNCAQKLQGRVTMTTDTSTSTAYMELRSLRTDDTAVYYCARAGYDILTDFSDAFDIWGHGTMVTVSS
VL: DIQMTQSPSSLSASVGDRVTITCRASQNINNFLNWYQQKEGKGPKLLIYAASSLQRGIPSTFSGSGSGTDFTLTISSLQPEDFATYICQQSYGIPWVGQGTKVEIK
notes: as m28
- fold above average geomean of negative control (HTK888) [3]: > 4 fold
- fold above average geomean of negative control (HTK888) [4]: > 4 fold

B7: STIM009 as screened from BCT (mouse IgG1 constant region) (antibody, V domains shown)
VH: QVQLVESGGGLVKPGGSLRLSCAASGFTFSDYYMSWIRQAPGKGLEWVSYISSSGSTIYYADSVKGRFTISRDNAKNSLYLQINSLRAEDTAVYYCARDFYDILTDSPYFYYGVDVWGQGTTVTVSS
VL: not shown
notes: as m28
- fold above average geomean of hybrid control [3]: > 4 fold
- fold above average geomean of hybrid control [4]: > 4 fold

B9: STIM002-B as screened from BCT (mouse IgG1 constant region) (antibody, V domains shown)
VH: QVQLVQSGGEVKKPGASVKVSCKASGYTFTSYGFSWVRQAPGQGLEWMGWISAYNGNTNYAQKLQGRVTMTTDTSTSTAYMELRSLRSDDTAVYYCARSTYFYGSGTLYGMDVWGQGTTVTVSS
VL: DIVMTQSPLSLPVTPGEPASISCRSSQSLLHSDGYNCLDWYLQKPGQSPQLLIYLGSTRASGFPDRFSGSGSGTDFTLKISRVEAEDVGVYYCMQALQTPCSFGQGTKLEIK
notes: as m28
- fold above average geomean of hybrid control [3]: > 4 fold
- fold above average geomean of hybrid control [4]: > 4 fold

B11: STIM003 human IgG1 (antibody)
heavy: not shown
light: EIVLTQSPGTLSLSPGERATLSCRASQSVSRSYLAWYQQKRGQAPRLLIYGASSRATGIPDRFSGDGSGTDFTLSISRLEPEDFAVYYCHQYDMSPFTFGPGTKVDIKRTVAAPSVFIFPPSDEQLKSGTASVVCLLNNFYPREAKVQWKVDNALQSGNSQESVTEQDSKDSTYSLSSTLTLSKADYEKHKVYACEVTHQGLSSPVTKSFNRGEC
- EC50, primary NK cell ADCC on MJ cells, 2 h, Donor 1 [6]: 0.00233 nM
- EC50, primary NK cell ADCC on MJ cells, 2 h, Donor 2 [6]: 0.0358 nM
- EC50, primary NK cell ADCC on MJ cells, 2 h, Donor 3 [6]: 0.101 nM
- EC50, primary NK cell ADCC on ICOS-transfected CCRF-CEM cells, 4 h, Donor 4 [7]: ~0.003 nM
- EC50, primary NK cell ADCC on ICOS-transfected CCRF-CEM cells, 4 h, Donor 5 [7]: 0.000895 nM
- EC50, primary NK cell ADCC on ICOS-transfected CCRF-CEM cells, 4 h, Donor 6 [7]: 0.00103 nM

The next lines start with the values.

- fold above average geomean of hybrid control [3]: > 4 fold
- fold above average geomean of hybrid control [4]: > 4 fold
B2: STIM001 as screened from BCT (human V regions on mouse IgG1 constant region) (antibody, V domains shown)
VH: QVQVVQSGAEVKKPGASVKVSCKASGYTFSTFGITWVRQAPGQGLEWMGWISAYNGDTNYAQNLQGRVIMTTDTSTSTAYMELRSLRSDDTAVYYCARSSGHYYYYGMDVWGQGTTVTVSS
VL: DIVMTQSPLSLPVTPGEPASISCRSSQSLLHSNEYNYLDWYLQKPGQSPQLLIFLGSNRASGVPDRFSGSGSGTDFTLKITRVEAEDVGIYYCMQSLQTPLTFGGGTKVEIK

- fold above average geomean of negative control [1]: > 10 fold
- fold above average geomean of negative control [2]: > 10 fold
B5: CL-74570 (IgG1 format) (antibody, V domains shown)
VH: EVQLVESGGGVIRPGGSLRLSCAASGFTFDDYGMSWVRQAPGKGLEWVSGINWIGDNTDYADSVKGRFTISRDNAKNSLYLQMNSLRAEDTALYYCARDYFGSGSYYNVPF
VL: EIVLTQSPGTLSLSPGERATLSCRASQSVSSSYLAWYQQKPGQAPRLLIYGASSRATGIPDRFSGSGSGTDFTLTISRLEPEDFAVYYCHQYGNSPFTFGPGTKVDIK
notes: as for B1

- EC50, primary NK cell ADCC on MJ cells, 2 h, Donor 1 [5]: 0.121 nM
- EC50, primary NK cell ADCC on MJ cells, 2 h, Donor 2 [5]: 0.529 nM
- EC50, primary NK cell ADCC on MJ cells, 2 h, Donor 1 [6]: 0.121 nM
- EC50, primary NK cell ADCC on MJ cells, 2 h, Donor 2 [6]: 0.529 nM
- EC50, primary NK cell ADCC on MJ cells, 2 h, Donor 3 [6]: 2.92 nM
- EC50, primary NK cell ADCC on ICOS-transfected CCRF-CEM cells, 4 h, Donor 4 [7]: 0.00392 nM
- EC50, primary NK cell ADCC on ICOS-transfected CCRF-CEM cells, 4 h, Donor 5 [7]: 0.00395 nM
- EC50, primary NK cell ADCC on ICOS-transfected CCRF-CEM cells, 4 h, Donor 6 [7]: 0.00375 nM
B8: STIM001 human IgG1 (antibody)
heavy: not shown
light: DIVMTQSPLSLPVTPGEPASISCRSSQSLLHSNEYNYLDWYLQKPGQSPQLLIFLGSNRASGVPDRFSGSGSGTDFTLKITRVEAEDVGIYYCMQSLQTPLTFGGGTKVEIKRTVAAPSVFIFPPSDEQLKSGTASVVCLLNNFYPREAKVQWKVDNALQSGNSQESVTEQDSKDSTYSLSSTLTLSKADYEKHKVYACEVTHQGLSSPVTKSFNRGEC

- IC50 [8]: 0.1 nM
- IC50 [9]: 1.2 nM
- IC50 [10]: 2.8 nM
- IC50 [11]: 0.2 nM
- IC50 [12]: 0.14 nM
B10: Anti-ICOS antibody C398.4A (hamster IgG) (antibody, V domains shown)
VH: EVQLVESGGGLVKPAGSLTLSCVASGFTFSDYFMHWVRQAPGKGLEWVAVIDTKSFNYATYYSDLVKGRFTVSRDDSQGMVYLQMNNLRKEDTATYYCTATIAVPYYFDYWGQGTMVTVSS
VL: DIQMTQSPSSLPASLGDRVTINCQASQDISNYLSWYQQKPGKAPKLLIYYTNLLADGVPSRFSGSGSGRDYSFTISSLESEDIGSYYCQQYYNYRTFGPGTKLEIK
